From US20240043507A1

Key:
[1] = molecular target: spike protein of SARS-CoV-2 strain B.1.351 (SARS-CoV-2) (UniProt P0DTC2); assay: cell-based or functional assay
[2] = molecular target: SARS-CoV-2 spike receptor binding domain K417T (SARS-CoV-2) (UniProt P0DTC2); assay: BLI, RBD on AR2G biosensor, mAb as analyte
[3] = molecular target: SARS-CoV-2 receptor binding domain with N501Y (SARS-CoV-2) (UniProt P0DTC2); assay: BLI, RBD immobilised on AR2G biosensor, 1:1 fit
[4] = molecular target: SARS-CoV-2 spike protein on authentic virus, strain SARS-CoV-2/human/AUS/VIC01/2020 (Victoria) (SARS-CoV-2) (UniProt P0DTC2); assay: cell-based or functional assay
[5] = molecular target: SARS-CoV-2 spike protein on authentic virus, strain B.1.1.7 (SARS-CoV-2) (UniProt P0DTC2); assay: cell-based or functional assay

Row | Substance | IC50 (FRNT, live virus neutralisation) [1] | Kd [3] | other results
1 | AZD1061 (antibody) | 0.014 µg/mL |  | Kd [2]: 8 nM
2 | REGN10987 as tested by BLI (Fab by the footnote of Table 12) |  | 3.09 nM | 
3 | AZD7442 (a combination of AZD1061 and AZD8895) |  |  | IC50 (ug/ml), FRNT [4]: 0.009 µg/mL; B.1.1.7/Victoria Ratio of IC50 [5]: 0.77; IC50 (ug/ml), FRNT [5]: 0.007 µg/mL
4 | AZD8895 as tested by BLI (Fab by the footnote of Table 12) |  | 2.44 nM | 
5 | AZD8895 (antibody) | 0.046 µg/mL |  | 
6 | REGN10933 as tested by BLI (Fab by the footnote of Table 12) |  | 2.75 nM | 
7 | REGN10987 (antibody) | 0.007 µg/mL |  | 
8 | AZD1061 as tested by BLI (Fab by the footnote of Table 12) |  | 1.41 nM | 
9 | REGN10933 (antibody) | 3.28 µg/mL |  | 
